From US11906519B2, “Methods for identifying LILRB-blocking antibodies” (THE BOARD OF REGENTS OF THE UNIVERSITY OF TEXAS SYSTEM, priority 2016, dated 2024)

biological target: T1, LILRB4 (Homo sapiens, UniProt Q8NHJ6); assay: LILRB4 chimeric receptor reporter cells (NFAT-GFP); type: cell-based; conditions: percentage of GFP+ reporter cells
T1 construct: fusion of the extracellular domain (ECD) of individual LILRBs and their mouse orthologues; PILRbeta part (fusion partner); expressed in transfected cells
Source text: The inventors sought to determine if antagonizing LILRB4 could prevent AML development by reversing LILRB4-mediated immune inhibition. To identify potential agonists and antagonists of LILRBs, the inventors generated individual stable chimeric receptor reporter cells based on fusion of the extracellular domain (ECD) of individual LILRBs and their mouse orthologues PirB^27 and gp49B1^28, with the intracellular domain of paired immunoglobulin-like receptor β, which signals through the adaptor DAP-12 to activate NFAT promoter-driven GFP expression, as the inventors have described^2, 31. With help from this system, the inventors generated novel anti-LILRB4 blocking antibodies to further assess LILRB4-mediated signaling (FIG. 10).
Chimeric receptor reporter cells. The inventors constructed a stable chimeric receptor reporter cell system as described^2 31 to test the ability of a ligand to bind to the ECD of individual LILRBs, PirB, and gp49B1 and to trigger the activation or inhibition of the chimerically fused intracellular domain of paired immunoglobulin-like receptor β, which signals through the adaptor DAP-12 to activate the NFAT promoter. If an agonist or antagonist binds the ECD and activates or suppresses the chimeric signaling domain, an increase or decrease, respectively, in GFP expression is observed.
APOE competition assay was used to screen LILRB4 blocking antibodies. Briefly, APOE proteins were pre-coated on 96-well plate at 37° C. for 3 hrs. After 2 times washing by PBS, 2×10^4 LILRB4 reporter cells were seeded in each well; meanwhile, indicated anti-LILRB4 antibodies were added into culture media. After 16 hrs, the percentage of GFP^+ reporter cells was analysed by flow cytometry.

T1 sequence (Q8NHJ6 with tags, fused parts or gaps): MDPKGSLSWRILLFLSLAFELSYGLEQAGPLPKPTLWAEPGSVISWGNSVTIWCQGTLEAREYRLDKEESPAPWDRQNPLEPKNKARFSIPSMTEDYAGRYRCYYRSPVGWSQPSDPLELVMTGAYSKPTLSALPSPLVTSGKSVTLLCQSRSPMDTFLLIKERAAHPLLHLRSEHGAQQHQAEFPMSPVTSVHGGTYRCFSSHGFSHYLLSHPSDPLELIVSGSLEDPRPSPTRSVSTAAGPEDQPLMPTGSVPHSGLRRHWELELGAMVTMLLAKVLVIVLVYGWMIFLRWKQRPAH

Molecule | Activation of LILRB4 reporter
APOE-POPC: liposome-reconstituted APOE protein | same ability as lipid-free APOE protein
Mut-N: N-terminal mutant of human APOE: R142A/K143A/R145A/K146A/R147A/R150A (protein) KVEQAVETEPEPELRQQTEWQSGQRWELALGRFWDYLRWVQTLSEQVQEELLSSQVTQELRALMDETMKELKAYKSELEEQLTPVAEETRARLSKELQAAQARLGADMEDVCGRLVQYRGEVQAMLGQSTEELRVRLASHLAALAAALLADADDLQKRLAVYQAGAREGAERGLSAIRERLGPLVEQGRVRAATVGSLAGQPLQERAQAWGERLRARMEEMGSRTRDRLDEVKEQVAEVRAKLEEQAQQIRLQAEAFQARLKSWFEPLVEDMQRQWAGLVEKVQAAVGTSAAPVPSDNH | significantly reduced
mouse APOE: mouse APOE protein (protein) EGEPEVTDQLEWQSNQPWEQALNRFWDYLRWVQTLSDQVQEELQSSQVTQELTALMEDTMTEVKAYKKELEEQLGPVAEETRARLGKEVQAAQARLGADMEDLRNRLGQYRNEVHTMLGQSTEEIRARLSTHLRKMRKRLMRDAEDLQKRLAVYKAGAREGAERGVSAIRERLGPLVEQGRQRTANLGAGAAQPLRDRAQAFGDRIRGRLEEVGNQARDRLEEVREHMEEVRSKMEEQTQQIRLQAEIFQARLKGWFEPIVEDMHRQWANLMEKIQASVATNPIITPVAQENQ | can activate
